Test results taken from paper PMC2245940, “Blocking binding of Bacillus thuringiensis Cry1Aa to Bombyx mori cadherin receptor results in only a minor reduction of toxicity” (BMC Biochemistry, 2008).

Tests used:
[1] = molecular target: Bombyx mori cadherin-like protein BtR175 (Bombyx mori (endogenous in larval midgut)); test: SPR; receptors (100-200 ng) amine-coupled to a CM5 chip; toxin 100-1000 nM injected in HBS pH 7.4 (10 mM Hepes, 150 mM NaCl, 3.4 mM EDTA) at 50 ul/min; blank flowcell subtracted; 1:1 Langmuir fit; apparent rate constants
[2] = molecular target: Bombyx mori cadherin-like protein BtR175 (Bombyx mori (endogenous in larval midgut))
[3] = molecular target: T1, Bacillus thuringiensis Cry1Aa insecticidal protein, wild type, trypsin-activated toxin (Bacillus thuringiensis, UniProt P0A366 1-1176); test: SPR; receptors (100-200 ng) amine-coupled to a CM5 chip; toxin 100-1000 nM injected in HBS pH 7.4 (10 mM Hepes, 150 mM NaCl, 3.4 mM EDTA) at 50 ul/min; blank flowcell subtracted; 1:1 Langmuir fit; apparent rate constants; settings: both partners purified
T1 construct: trypsin-resistant 65 kDa toxin cut from the solubilized protoxin; also called Cry1Aa (Wt); Cry1Aa wt; source: E. coli MV1190 containing pBN-1Aa; crystal inclusion bodies solubilized, trypsin-digested, purified (Superdex 200, monomeric fraction)

Molecule	Kd [1] [nM]	koff [1] [s⁻¹]	kon [1] [M⁻¹ s⁻¹]	LC50 against B. mori larvae (surface contamination bioassay, mortality after 5 days) [2] [ng/ccm]	Kd [3] [nM]	koff [3] [s⁻¹]	kon [3] [M⁻¹ s⁻¹]
Bacillus thuringiensis Cry1Aa insecticidal protein, wild type, trypsin-activated toxin (from UniProt P0A366 1-1176) (natural protein)	2.6	3.3e-05	13000				
Cry1Aa mutant toxin F328A, trypsin-activated (from UniProt P0A366 1-1176) (natural protein)	60.7	9.1e-05	1500	41.5			
Bombyx mori aminopeptidase N (receptor) LSPIPVPEDEWVEFARMLRDPAFRLPTTTRPRHYQVTLTPYFDVVPANVNPFTFDGEVTIYTSPTVANVNEVVIHCNDLTIQSLSIGYQSGTNVVDITATGQTFACEMPFSFLRIRTTEALVLNREYIIKSTFRGNLQTNMRGFYRSWYVDSTGRRWMGTTQFQPGHARQAFPCYDEPGFKATFDITMNREESFSPTISNMPIRTTNTLANGRVSETFWTTPVTSTYLLAFIVSHYTVVSTNNNALRPFDIYARNNVGRTGDWSLEIGEKLLEAMEAYTQIPYYTMAENINMKQAAIPDFSAGAMENWGLLTYREALILYDPLNSNHFYKQRVANIVAHEIAHMWFGNLVTCAWWDNLWLNEGFARFYQYYLTASVAPELGYETRFIVEQVQMAMFSDSVDTAHALTDLNVNDPTTVSAHFSTITYARGAAILRMTQHLLGVETFVKGLRNYLRERQFNVAEPHHLFTALDAAAVEDGALNGYGGITIDTYFRTWSEKAGHPLLTVTINQRTGEMIVTQERWERNTGVSQFPSLWHIPITWTRAGAPEFEDLKPSQFISQQVTSINRGTTGLEWVIFNKQEAGFYRVNYDDTNWALLTRALRSSSRTAIHQLNRAQIVDDIFQLARANVMKYNRAFNILSFLQFEDEYAPWLAAISGFNFLIRRLAHDSTNAALLQKLILELSPAVVAKLGYLEPENGSYMTDLQRMYVMEFLCNVGHEECNNFGTQAFRRWSTGTFIPANMRPWVYCAGLRHGTAEDFNFFWNRYLQEDLSSEKVVMLNVAGCTTDQASLNRFLDAIVSGNDDIRPQDYNAALTSAITSNEINTLRAFQWLRNNVDQATRTLGSVSTILNTIIGRLLNEEQINEVSNWLTANQNTLGATYSTALRAIETTRSNLVWSQQRISEFTNYFESGYVEDVIEEITEAPPTAPPTAPPTEAPAVTPAPDSANVAALSFITLIITLAVNLA					75	0.0015	21000
